These are literature values, as cited in article PMC4747809.

The target of data set [1] is iC3b/C3dg iC3b, C3dg (Homo sapiens) (UniProt P01024).
Data set [2] has as its target iC3b/C3dg TED (iC3b, C3dg) (Homo sapiens) (UniProt P01024).

Sequence of iC3b/C3dg iC3b, C3dg (Homo sapiens) (P01024 955-1303): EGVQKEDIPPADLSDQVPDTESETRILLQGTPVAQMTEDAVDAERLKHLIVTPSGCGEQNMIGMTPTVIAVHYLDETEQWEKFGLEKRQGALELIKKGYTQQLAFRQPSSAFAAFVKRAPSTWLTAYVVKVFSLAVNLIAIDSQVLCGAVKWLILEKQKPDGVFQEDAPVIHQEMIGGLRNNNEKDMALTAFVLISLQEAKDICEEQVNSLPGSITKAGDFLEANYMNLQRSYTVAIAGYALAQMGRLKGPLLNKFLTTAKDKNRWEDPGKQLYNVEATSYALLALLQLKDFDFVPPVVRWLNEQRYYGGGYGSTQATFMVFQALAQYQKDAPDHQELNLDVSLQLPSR
Sequence of iC3b/C3dg TED (iC3b, C3dg) (Homo sapiens) (P01024 955-1303): as above
Sequence of Factor H (FH) domains 19-20 (P08603 1107-1231): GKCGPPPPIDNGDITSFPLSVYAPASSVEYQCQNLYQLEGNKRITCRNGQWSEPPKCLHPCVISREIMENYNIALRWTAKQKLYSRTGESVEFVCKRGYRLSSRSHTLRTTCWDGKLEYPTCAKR
Sequence of Complement receptor 2 (CR2) domains 1-4 (P20023 21-273): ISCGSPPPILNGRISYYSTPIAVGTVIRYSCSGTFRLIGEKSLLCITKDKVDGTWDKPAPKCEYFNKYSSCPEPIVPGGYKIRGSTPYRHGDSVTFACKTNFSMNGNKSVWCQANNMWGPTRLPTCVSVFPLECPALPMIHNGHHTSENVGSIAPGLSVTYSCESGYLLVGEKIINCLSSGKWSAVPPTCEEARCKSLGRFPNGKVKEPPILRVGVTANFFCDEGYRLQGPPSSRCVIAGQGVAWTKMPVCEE

For the substance “Factor H (FH) domains 19-20 (from UniProt P08603)”, the Kd in data set [1] is 5 µM.
Turning to “Complement receptor 2 (CR2) domains 1-4 (from UniProt P20023)”, the Kd in data set [2] was 0.5 µM.

As usually defined, the Kd is the equilibrium constant for the complex coming apart.
